Target: T1, cMet-Fc fusion protein (extracellular domain of the cMet receptor expressed as an Fc-fusion protein) (human, UniProt P08581 25-932)
T1 construct: extracellular domain; also called soluble cMet-Fc-fusion protein; soluble cMet receptor; not shown: Fc part
Assay: phage ELISA, cMet-Fc vs TRAIL-Fc
Method in brief: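 Specificity check: phage displaying peptides incubated 2 h at room temperature on wells coated with 0.5 μg/mL cMet-Fc versus TRAIL-Fc, after blocking with 3% BSA/PBST. HRP-anti-M13 antibody detected binding phage.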

T1 sequence (P08581 25-932): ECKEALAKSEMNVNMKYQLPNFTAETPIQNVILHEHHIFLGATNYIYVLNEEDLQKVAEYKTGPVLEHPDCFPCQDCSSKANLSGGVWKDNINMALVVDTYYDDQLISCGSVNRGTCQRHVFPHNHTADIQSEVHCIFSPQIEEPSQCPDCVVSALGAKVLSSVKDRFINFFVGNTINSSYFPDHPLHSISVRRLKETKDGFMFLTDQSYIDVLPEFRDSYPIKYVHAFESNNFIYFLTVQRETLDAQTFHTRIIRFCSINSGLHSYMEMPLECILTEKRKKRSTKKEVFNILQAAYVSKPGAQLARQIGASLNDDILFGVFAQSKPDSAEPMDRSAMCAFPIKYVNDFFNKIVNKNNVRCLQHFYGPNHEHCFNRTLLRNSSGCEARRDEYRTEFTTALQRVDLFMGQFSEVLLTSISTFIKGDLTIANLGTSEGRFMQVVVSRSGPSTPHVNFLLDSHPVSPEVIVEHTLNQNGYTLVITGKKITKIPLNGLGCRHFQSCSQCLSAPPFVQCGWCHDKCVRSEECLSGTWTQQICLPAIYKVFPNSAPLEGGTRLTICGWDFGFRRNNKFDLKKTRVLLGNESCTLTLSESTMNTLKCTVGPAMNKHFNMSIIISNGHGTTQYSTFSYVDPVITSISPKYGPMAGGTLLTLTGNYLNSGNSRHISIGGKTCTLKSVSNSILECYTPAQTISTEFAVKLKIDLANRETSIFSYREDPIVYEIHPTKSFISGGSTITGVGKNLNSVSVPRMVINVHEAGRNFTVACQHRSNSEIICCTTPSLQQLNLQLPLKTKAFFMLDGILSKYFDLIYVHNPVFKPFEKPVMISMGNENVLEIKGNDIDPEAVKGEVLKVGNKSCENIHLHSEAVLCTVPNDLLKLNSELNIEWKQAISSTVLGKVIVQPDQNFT

Row | Binder | Protein ELISA (fold over background) [fold]
1 | GDASWCDENSPAAWFYCELWDP [551-D02 peptide-displaying phage (SEQ ID NO: 394)] | 13.4
2 | GDYDYCDFDLETYIPECHSYDP [546-G02 peptide-displaying phage (SEQ ID NO: 390)] | 16.1
3 | GSGMGCHQVNISTGDCAEDAP [442-E03 peptide-displaying phage (SEQ ID NO: 381)] | 3.9
4 | GSAGWCYTMNYVDQLCTYMAP [445-E11 peptide-displaying phage (SEQ ID NO: 387)] | 3.7
5 | GSDMNCTVLAQDQIFCFREAP [451-C06 peptide-displaying phage (SEQ ID NO: 386)] | 3
6 | AGAWNCEYPTFICEWQGA [570-E07 peptide-displaying phage (SEQ ID NO: 012)] | 4.5
7 | GSQQICDRKEYRFQACLSDAP [443-H10 peptide-displaying phage (SEQ ID NO: 371)] | 3.4
8 | AGNWICNLSEMRCYPKGT [456-E04 peptide-displaying phage (SEQ ID NO: 013)] | 3.9
9 | GSFFPCWRIDRFGYCHANAP [551-H10 peptide-displaying phage (SEQ ID NO: 370)] | 13.3
10 | GSELFCFYHHQGYEGCDVLAP [465-B07 peptide-displaying phage (SEQ ID NO: 385)] | 4.8
11 | GSFWNCTTDLGAMSDCGFFAP [445-E07 peptide-displaying phage (SEQ ID NO: 383)] | 3.1
12 | GSMLGCLFEHQNKYDCYVLAP [443-D04 peptide-displaying phage (SEQ ID NO: 379)] | 3.2
13 | GSSARCDELINDFHSCLVMAP [445-E06 peptide-displaying phage (SEQ ID NO: 375)] | 4.3
14 | GSSHCNQMITPWQNCGMRAP [446-E12 peptide-displaying phage (SEQ ID NO: 374)] | 3.3

Target: T2, human cMet expressed on 3T3 cells (human, UniProt P08581 25-1390)
T2 construct: whole, on cells; cells fixed with glutaraldehyde; also called cell surface-expressed human cMet; 3T3 cells that over-express human cMet
T2 sequence (P08581 25-1390): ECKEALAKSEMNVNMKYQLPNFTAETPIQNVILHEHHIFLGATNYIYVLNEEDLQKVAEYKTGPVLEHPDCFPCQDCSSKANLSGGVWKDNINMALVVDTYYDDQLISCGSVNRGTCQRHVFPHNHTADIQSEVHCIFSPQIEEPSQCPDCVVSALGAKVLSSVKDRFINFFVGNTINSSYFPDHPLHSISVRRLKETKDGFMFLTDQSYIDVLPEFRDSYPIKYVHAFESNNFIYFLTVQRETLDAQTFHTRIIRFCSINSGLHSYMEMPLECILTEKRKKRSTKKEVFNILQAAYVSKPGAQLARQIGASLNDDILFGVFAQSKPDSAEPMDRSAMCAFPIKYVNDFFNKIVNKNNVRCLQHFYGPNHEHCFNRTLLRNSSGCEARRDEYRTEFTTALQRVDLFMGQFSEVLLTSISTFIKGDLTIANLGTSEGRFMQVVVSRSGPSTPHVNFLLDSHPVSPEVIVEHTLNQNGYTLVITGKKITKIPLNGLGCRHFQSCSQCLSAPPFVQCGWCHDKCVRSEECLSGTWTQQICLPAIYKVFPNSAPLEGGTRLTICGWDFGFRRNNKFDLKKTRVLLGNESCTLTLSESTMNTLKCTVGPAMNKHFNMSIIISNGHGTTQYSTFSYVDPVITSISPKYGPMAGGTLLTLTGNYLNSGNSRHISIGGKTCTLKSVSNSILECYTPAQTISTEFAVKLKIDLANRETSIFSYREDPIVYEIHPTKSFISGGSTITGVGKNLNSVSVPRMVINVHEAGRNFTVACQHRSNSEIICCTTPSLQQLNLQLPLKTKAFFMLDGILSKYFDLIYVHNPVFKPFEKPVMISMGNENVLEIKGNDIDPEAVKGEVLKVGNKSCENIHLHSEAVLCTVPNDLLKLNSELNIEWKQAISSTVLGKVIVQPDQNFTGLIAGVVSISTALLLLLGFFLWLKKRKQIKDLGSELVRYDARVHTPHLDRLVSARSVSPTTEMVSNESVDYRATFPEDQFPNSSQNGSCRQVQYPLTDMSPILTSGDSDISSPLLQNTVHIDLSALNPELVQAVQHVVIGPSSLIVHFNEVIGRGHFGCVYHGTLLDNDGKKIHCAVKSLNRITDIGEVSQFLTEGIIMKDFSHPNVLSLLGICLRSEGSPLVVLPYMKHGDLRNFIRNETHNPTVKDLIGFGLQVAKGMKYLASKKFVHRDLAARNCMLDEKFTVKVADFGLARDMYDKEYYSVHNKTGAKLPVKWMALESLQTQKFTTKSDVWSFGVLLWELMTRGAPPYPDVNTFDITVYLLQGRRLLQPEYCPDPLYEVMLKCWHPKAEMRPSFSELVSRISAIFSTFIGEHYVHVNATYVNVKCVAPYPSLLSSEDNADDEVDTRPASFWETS
Assay: whole cell phage ELISA, 3T3 human cMet vs 3T3
Method in brief: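 Bound phage was detected with an HRP-conjugated anti-M13 antibody after PBST washes. The cells were cMet-over-expressing 3T3, read against plain 3T3.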

Row | Binder | WC ELISA (fold over background) [fold]
15 | GDASWCDENSPAAWFYCELWDP [551-D02 peptide-displaying phage (SEQ ID NO: 394)] | 1.37
16 | GDYDYCDFDLETYIPECHSYDP [546-G02 peptide-displaying phage (SEQ ID NO: 390)] | 1.27
17 | GSGMGCHQVNISTGDCAEDAP [442-E03 peptide-displaying phage (SEQ ID NO: 381)] | 1.43
18 | GSAGWCYTMNYVDQLCTYMAP [445-E11 peptide-displaying phage (SEQ ID NO: 387)] | 1.43
19 | GSDMNCTVLAQDQIFCFREAP [451-C06 peptide-displaying phage (SEQ ID NO: 386)] | 1.37
20 | AGAWNCEYPTFICEWQGA [570-E07 peptide-displaying phage (SEQ ID NO: 012)] | 1.27
21 | GSQQICDRKEYRFQACLSDAP [443-H10 peptide-displaying phage (SEQ ID NO: 371)] | 1.4
22 | AGNWICNLSEMRCYPKGT [456-E04 peptide-displaying phage (SEQ ID NO: 013)] | 1.4
23 | GSFFPCWRIDRFGYCHANAP [551-H10 peptide-displaying phage (SEQ ID NO: 370)] | 1.87
24 | GSELFCFYHHQGYEGCDVLAP [465-B07 peptide-displaying phage (SEQ ID NO: 385)] | 1.27
25 | GSFWNCTTDLGAMSDCGFFAP [445-E07 peptide-displaying phage (SEQ ID NO: 383)] | 1.37
26 | GSMLGCLFEHQNKYDCYVLAP [443-D04 peptide-displaying phage (SEQ ID NO: 379)] | 1.43
27 | GSSARCDELINDFHSCLVMAP [445-E06 peptide-displaying phage (SEQ ID NO: 375)] | 1.33
28 | GSSHCNQMITPWQNCGMRAP [446-E12 peptide-displaying phage (SEQ ID NO: 374)] | 1.37

Target: T1, cMet-Fc fusion protein (extracellular …)
Assay: phage ELISA on cMet-Fc, competitor HGF 100 ng/mL
Method in brief: (§1)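 Plates coated with 0.5 μg/mL cMet-Fc, with TRAIL-Fc as background, then blocked with 3% BSA. Bound phage detected with HRP anti-M13 antibody.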

Row | Binder | % of binding in the absence of HGF [%]
29 | GDASWCDENSPAAWFYCELWDP [551-D02 peptide-displaying phage (SEQ ID NO: 394)] | 91
30 | GDYDYCDFDLETYIPECHSYDP [546-G02 peptide-displaying phage (SEQ ID NO: 390)] | 32
31 | GSGMGCHQVNISTGDCAEDAP [442-E03 peptide-displaying phage (SEQ ID NO: 381)] | 130
32 | GSAGWCYTMNYVDQLCTYMAP [445-E11 peptide-displaying phage (SEQ ID NO: 387)] | 69
33 | GSDMNCTVLAQDQIFCFREAP [451-C06 peptide-displaying phage (SEQ ID NO: 386)] | 108
34 | AGAWNCEYPTFICEWQGA [570-E07 peptide-displaying phage (SEQ ID NO: 012)] | 81
35 | GSQQICDRKEYRFQACLSDAP [443-H10 peptide-displaying phage (SEQ ID NO: 371)] | 124
36 | AGNWICNLSEMRCYPKGT [456-E04 peptide-displaying phage (SEQ ID NO: 013)] | 82
37 | GSFFPCWRIDRFGYCHANAP [551-H10 peptide-displaying phage (SEQ ID NO: 370)] | 88
38 | GSELFCFYHHQGYEGCDVLAP [465-B07 peptide-displaying phage (SEQ ID NO: 385)] | 111
39 | GSFWNCTTDLGAMSDCGFFAP [445-E07 peptide-displaying phage (SEQ ID NO: 383)] | 82
40 | GSMLGCLFEHQNKYDCYVLAP [443-D04 peptide-displaying phage (SEQ ID NO: 379)] | 69
41 | GSSARCDELINDFHSCLVMAP [445-E06 peptide-displaying phage (SEQ ID NO: 375)] | 83
42 | GSSHCNQMITPWQNCGMRAP [446-E12 peptide-displaying phage (SEQ ID NO: 374)] | 73

Target: T1, cMet-Fc fusion protein (extracellular …)
Assay: phage ELISA on cMet-Fc, competitor HGF 500 ng/mL
Method in brief: as §1

Row | Binder | % of binding in the absence of HGF [%]
43 | GDASWCDENSPAAWFYCELWDP [551-D02 peptide-displaying phage (SEQ ID NO: 394)] | 70
44 | GDYDYCDFDLETYIPECHSYDP [546-G02 peptide-displaying phage (SEQ ID NO: 390)] | 19
45 | GSGMGCHQVNISTGDCAEDAP [442-E03 peptide-displaying phage (SEQ ID NO: 381)] | 81
46 | GSAGWCYTMNYVDQLCTYMAP [445-E11 peptide-displaying phage (SEQ ID NO: 387)] | 79
47 | GSDMNCTVLAQDQIFCFREAP [451-C06 peptide-displaying phage (SEQ ID NO: 386)] | 86
48 | AGAWNCEYPTFICEWQGA [570-E07 peptide-displaying phage (SEQ ID NO: 012)] | 71
49 | GSQQICDRKEYRFQACLSDAP [443-H10 peptide-displaying phage (SEQ ID NO: 371)] | 143
50 | AGNWICNLSEMRCYPKGT [456-E04 peptide-displaying phage (SEQ ID NO: 013)] | 81
51 | GSFFPCWRIDRFGYCHANAP [551-H10 peptide-displaying phage (SEQ ID NO: 370)] | 49
52 | GSELFCFYHHQGYEGCDVLAP [465-B07 peptide-displaying phage (SEQ ID NO: 385)] | 79
53 | GSFWNCTTDLGAMSDCGFFAP [445-E07 peptide-displaying phage (SEQ ID NO: 383)] | 64
54 | GSMLGCLFEHQNKYDCYVLAP [443-D04 peptide-displaying phage (SEQ ID NO: 379)] | 73
55 | GSSARCDELINDFHSCLVMAP [445-E06 peptide-displaying phage (SEQ ID NO: 375)] | 73
56 | GSSHCNQMITPWQNCGMRAP [446-E12 peptide-displaying phage (SEQ ID NO: 374)] | 83

From patent US20120039802A1 (published 2012)
